The record followed here is patent US20240270857A1 (CHIA TAI TIANQING PHARMACEUTICAL GROUP, published 2024).

Where a chain is given by its changes, count along the chain named. Read-outs that look alike come from different tables or passages of the source.

For experiment [1], the target named is T1, human IL-36R overexpressed on 293T-hIL36R-NFκB cells (human, UniProt Q9HB29 20-575).
T1 construct: Entry includes the signal peptide; also called IL1RL2; IL-1Rrp2
T1 sequence: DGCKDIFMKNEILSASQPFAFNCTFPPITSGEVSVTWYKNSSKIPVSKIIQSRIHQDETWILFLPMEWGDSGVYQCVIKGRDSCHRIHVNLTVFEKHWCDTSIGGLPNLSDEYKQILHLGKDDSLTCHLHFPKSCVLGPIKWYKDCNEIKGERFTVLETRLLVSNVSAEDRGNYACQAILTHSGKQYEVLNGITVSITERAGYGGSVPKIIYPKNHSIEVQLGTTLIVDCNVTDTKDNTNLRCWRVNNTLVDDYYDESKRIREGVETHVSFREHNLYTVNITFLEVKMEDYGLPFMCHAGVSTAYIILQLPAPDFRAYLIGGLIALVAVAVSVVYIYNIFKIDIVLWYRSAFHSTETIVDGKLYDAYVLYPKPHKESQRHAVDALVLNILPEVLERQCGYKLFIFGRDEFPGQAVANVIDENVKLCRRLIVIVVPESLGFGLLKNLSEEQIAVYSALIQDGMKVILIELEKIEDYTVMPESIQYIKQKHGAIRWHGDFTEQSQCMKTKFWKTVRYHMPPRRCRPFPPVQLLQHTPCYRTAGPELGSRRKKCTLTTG
As to the kind of experiment: FACS on 293T-hIL36R-NFκB cells, ratio of MFI to background MFI. The method, then: (§1) After the cells was washed with PBS, the cells were resuspended with 100 μL of PBS and then the fluorescence signal was detected using a flow cytometer (BD, Accuri C6). […] The ratio was the ratio of mean fluorescence intensity (MFI) of the experimental group/the background MFI, and the resulting data were analyzed using GraphPad Prism.
(§2) Affinity, binding and blocking assays for humanized antibodies hz72C1-1.1, hz72C1-1.2, hz72C1-1.3, hz72C1-2.1, hz72C1-2.2 and hz72C1-2.3 as well as hz84C4-1.1, hz84C4-1.2, hz84C4-1.3, hz84C4-1.4, hz84C4-1.5, hz84C4-2.1, hz84C4-2.2, hz84C4-2.3, hz84C4-2.4 and hz84C4-2.5 were performed according to the methods of Example 4, Example 5. Example 6, Example 7 and Example 8.

For experiment [2], the target named is T2, cynomolgus IL-36R overexpressed on 293T-CynoIL36R-NFκB cells (cynomolgus monkey).
T2 construct: Entry includes the signal peptide; also called monkey IL-36R
T2 chain: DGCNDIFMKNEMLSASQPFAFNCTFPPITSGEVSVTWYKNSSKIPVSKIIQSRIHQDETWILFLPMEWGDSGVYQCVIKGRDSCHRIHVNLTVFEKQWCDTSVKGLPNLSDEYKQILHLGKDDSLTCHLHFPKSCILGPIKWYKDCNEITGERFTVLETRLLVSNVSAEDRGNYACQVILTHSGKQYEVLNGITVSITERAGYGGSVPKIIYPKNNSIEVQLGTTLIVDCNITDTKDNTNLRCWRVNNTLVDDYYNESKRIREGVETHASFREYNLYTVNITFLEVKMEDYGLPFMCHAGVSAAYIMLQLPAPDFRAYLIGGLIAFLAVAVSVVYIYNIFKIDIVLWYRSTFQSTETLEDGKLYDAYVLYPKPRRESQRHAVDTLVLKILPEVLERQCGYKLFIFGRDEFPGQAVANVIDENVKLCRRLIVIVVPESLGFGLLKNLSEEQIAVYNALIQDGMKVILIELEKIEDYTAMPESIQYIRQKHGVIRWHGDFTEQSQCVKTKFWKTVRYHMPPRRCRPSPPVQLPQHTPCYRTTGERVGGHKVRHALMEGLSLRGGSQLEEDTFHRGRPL
As to the kind of experiment: FACS on 293T-CynoIL36R-NFκB cells, ratio of MFI to background MFI. The method, then:
as §1, §2

Experiment [3] has as its target T3, IL-36R naturally expressed on OVCAR8 cells and on normal human epidermal keratinocytes (NHK cells) (human, UniProt Q9HB29 20-575).
T3 sequence (looked up): T1 sequence
As to the kind of experiment: cell-based or functional assay.

Experiment [4] has as its target T1, human IL-36R overexpressed on …. As to the kind of experiment: FACS on 293T-hIL36R-NFκB cells, ratio of MFI to background MFI. As to the method: as §1, §2
The source holds these as a separate data set.

Experiment [5] deals with T3, IL-36R naturally expressed on OVCAR8 …. As to the kind of experiment: cell-based or functional assay. This is another data set of the same source.

B1: BI655130 (antibody, human IgG1, kappa, L234A L235A)
heavy: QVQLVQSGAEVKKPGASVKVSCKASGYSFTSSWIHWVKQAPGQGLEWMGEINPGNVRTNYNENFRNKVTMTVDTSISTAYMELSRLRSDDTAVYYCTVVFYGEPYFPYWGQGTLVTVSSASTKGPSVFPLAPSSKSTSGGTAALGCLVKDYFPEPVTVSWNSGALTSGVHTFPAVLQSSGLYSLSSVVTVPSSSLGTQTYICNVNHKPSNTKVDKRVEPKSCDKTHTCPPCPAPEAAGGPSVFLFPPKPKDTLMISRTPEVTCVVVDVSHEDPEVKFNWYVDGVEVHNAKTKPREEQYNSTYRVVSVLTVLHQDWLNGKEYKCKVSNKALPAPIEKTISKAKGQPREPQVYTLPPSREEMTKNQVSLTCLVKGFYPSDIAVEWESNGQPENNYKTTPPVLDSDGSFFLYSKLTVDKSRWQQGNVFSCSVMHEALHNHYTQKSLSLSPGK
light: QIVLTQSPGTLSLSPGERATMTCTASSSVSSSYFHWYQQKPGQAPRLWIYRTSRLASGVPDRFSGSGSGTDFTLTISRLEPEDAATYYCHQFHRSPLTFGAGTKLEIKRTVAAPSVFIFPPSDEQLKSGTASVVCLLNNFYPREAKVQWKVDNALQSGNSQESVTEQDSKDSTYSLSSTLTLSKADYEKHKVYACEVTHQGLSSPVTKSFNRGEC
notes: also called Spesolimab
In the case of B1, the EC50 (commonly the concentration at which the effect is half-maximal) in experiment [1] came to 5.13 nM. Besides, the EC50 in experiment [2] was 7.64 nM. Moreover, in experiment [3], the “IC50 (M); hIL36α; IL-8 production” value turned out to be 6.33e-11 M, the “IC50 (M); hIL36αβγ; IL-8 production” value worked out at 7.27e-11 M, the “IC50 (M); hIL36β; IL-8 production” value was 3.29e-11 M and the “IC50 (M); hIL36γ; IL-8 production” value was 2.63e-11 M. Besides, in experiment [3], the “Maximum inhibition rate %; hIL36α; IL-8 production” value came to 101%, the “Maximum inhibition rate %; hIL36αβγ; IL-8 production” value came to 90.7%, the “Maximum inhibition rate %; hIL36β; IL-8 production” value worked out at 97.1% and the “Maximum inhibition rate %; hIL36γ; IL-8 production” value stood at 107%. Also, the EC50 in experiment [4] came out at 9.82 nM. Besides, in experiment [5], the “IC50 (M); hIL36α; IL-8 production” value came out at 1.6e-11 M, the “IC50 (M); hIL36αβγ; IL-8 production” value came out at 1.42e-11 M, the “IC50 (M); hIL36β; IL-8 production” value came out at 2.45e-11 M and the “IC50 (M); hIL36γ; IL-8 production” value stood at 8.12e-12 M. Also, in experiment [5], the “Maximum inhibition rate %; hIL36α; IL-8 production” value was determined as 99.6%, the “Maximum inhibition rate %; hIL36αβγ; IL-8 production” value was 99.9%, the “Maximum inhibition rate %; hIL36β; IL-8 production” value was found to be 99.1% and the “Maximum inhibition rate %; hIL36γ; IL-8 production” value turned out to be 100%.

B2: hz72C1-1.2 (antibody, human IgG4 S228P, kappa)
heavy: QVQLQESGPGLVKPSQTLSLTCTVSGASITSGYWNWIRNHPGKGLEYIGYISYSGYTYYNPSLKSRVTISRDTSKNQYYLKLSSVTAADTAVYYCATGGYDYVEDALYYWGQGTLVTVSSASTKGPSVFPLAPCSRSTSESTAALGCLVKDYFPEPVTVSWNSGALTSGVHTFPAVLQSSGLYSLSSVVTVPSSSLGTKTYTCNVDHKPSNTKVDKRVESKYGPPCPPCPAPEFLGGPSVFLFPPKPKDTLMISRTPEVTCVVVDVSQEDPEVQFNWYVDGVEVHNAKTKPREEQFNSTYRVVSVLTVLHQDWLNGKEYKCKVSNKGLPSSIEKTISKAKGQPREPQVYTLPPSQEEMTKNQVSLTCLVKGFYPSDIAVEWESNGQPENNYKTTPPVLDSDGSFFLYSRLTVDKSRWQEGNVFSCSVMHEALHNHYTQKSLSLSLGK
light: DIQMTQSPSSLSASVGDRVTITCRASSNVRYMYWYQQKPGKAPKLWIYLTSNLASGVPSRFSGSGSGTSYTLTISSLQPEDFATYYCQQFTTSPYTFGQGTKLEIKRTVAAPSVFIFPPSDEQLKSGTASVVCLLNNFYPREAKVQWKVDNALQSGNSQESVTEQDSKDSTYSLSSTLTLSKADYEKHKVYACEVTHQGLSSPVTKSFNRGEC
notes: Humanized, human IgG4 / kappa
Consider B2, for which, in experiment [1], the EC50 is 11.9 nM.

B3: hz72C1-2.3 (antibody, human IgG4 S228P, kappa)
heavy: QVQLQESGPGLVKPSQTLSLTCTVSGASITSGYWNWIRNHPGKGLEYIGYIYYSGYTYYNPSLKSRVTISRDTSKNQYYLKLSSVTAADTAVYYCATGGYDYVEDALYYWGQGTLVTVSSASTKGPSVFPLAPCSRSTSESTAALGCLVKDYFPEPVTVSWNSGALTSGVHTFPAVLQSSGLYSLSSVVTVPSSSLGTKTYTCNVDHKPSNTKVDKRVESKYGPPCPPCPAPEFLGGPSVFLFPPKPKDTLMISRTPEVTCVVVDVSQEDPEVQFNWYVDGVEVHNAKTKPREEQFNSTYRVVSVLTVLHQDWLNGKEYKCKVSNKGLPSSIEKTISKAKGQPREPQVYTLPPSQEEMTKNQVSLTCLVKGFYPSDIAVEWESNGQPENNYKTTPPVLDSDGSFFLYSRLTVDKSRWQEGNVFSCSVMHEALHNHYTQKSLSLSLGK
light: B2 light with F90Y
notes: Humanized, human IgG4 / kappa
With B3, the 50% effective concentration (EC50) in experiment [1] was determined as 20.2 nM.

B4: hz72C1-2.2 (antibody, human IgG4 S228P, kappa)
heavy: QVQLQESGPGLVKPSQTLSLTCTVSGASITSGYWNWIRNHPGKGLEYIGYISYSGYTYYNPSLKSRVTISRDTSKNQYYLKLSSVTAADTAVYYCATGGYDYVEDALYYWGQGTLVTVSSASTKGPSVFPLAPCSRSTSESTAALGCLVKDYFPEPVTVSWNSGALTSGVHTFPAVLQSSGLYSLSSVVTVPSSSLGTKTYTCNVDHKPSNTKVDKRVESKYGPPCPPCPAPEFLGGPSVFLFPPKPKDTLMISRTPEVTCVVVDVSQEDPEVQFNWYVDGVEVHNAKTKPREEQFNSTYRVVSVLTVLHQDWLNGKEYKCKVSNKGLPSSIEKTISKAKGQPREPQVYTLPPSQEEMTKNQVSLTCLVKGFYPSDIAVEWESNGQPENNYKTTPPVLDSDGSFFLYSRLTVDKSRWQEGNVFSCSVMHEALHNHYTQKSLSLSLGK
light: B2 light with F90Y
notes: Humanized, human IgG4 / kappa
Consider B4, for which, in experiment [1], the half-maximal effective concentration (EC50) was 17.6 nM.

B5: hz72C1-1.3 (antibody, human IgG4 S228P, kappa)
heavy: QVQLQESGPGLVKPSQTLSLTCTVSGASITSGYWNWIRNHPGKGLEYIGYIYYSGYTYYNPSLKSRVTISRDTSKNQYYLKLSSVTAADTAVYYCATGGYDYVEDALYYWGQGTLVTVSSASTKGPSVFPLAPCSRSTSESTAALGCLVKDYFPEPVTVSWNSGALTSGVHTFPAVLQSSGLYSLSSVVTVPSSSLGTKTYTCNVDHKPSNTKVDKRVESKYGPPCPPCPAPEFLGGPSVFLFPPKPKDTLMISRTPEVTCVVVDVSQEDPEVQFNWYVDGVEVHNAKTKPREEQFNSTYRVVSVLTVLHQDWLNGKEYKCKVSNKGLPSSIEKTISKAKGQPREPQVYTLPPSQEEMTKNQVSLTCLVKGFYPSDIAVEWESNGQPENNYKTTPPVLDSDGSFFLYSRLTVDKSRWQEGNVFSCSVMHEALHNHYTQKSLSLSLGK
light: B2 light
notes: Humanized, human IgG4 / kappa
Turning to B5, the EC50 in experiment [1] was determined as 11.9 nM.

B6: hz72C1-2.1 (antibody, human IgG4 S228P, kappa)
heavy: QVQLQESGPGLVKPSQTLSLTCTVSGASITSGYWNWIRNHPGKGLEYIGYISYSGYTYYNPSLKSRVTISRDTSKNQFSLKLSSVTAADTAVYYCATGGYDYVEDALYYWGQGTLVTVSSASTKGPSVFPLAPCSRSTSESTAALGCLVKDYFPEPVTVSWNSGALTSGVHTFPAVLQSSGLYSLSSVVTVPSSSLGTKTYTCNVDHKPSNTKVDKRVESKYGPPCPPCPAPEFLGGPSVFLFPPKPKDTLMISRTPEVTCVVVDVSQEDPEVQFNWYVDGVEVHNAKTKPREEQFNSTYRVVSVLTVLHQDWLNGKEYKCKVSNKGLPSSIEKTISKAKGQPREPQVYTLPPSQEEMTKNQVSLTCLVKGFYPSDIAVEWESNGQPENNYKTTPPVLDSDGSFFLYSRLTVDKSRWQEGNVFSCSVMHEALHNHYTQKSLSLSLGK
light: B2 light with F90Y
notes: Humanized, human IgG4 / kappa
Regarding B6, the concentration for a half-maximal effect (EC50) in experiment [1] amounted to 19.3 nM.

B7: hz72C1-1.1 (antibody, human IgG4 S228P, kappa)
heavy: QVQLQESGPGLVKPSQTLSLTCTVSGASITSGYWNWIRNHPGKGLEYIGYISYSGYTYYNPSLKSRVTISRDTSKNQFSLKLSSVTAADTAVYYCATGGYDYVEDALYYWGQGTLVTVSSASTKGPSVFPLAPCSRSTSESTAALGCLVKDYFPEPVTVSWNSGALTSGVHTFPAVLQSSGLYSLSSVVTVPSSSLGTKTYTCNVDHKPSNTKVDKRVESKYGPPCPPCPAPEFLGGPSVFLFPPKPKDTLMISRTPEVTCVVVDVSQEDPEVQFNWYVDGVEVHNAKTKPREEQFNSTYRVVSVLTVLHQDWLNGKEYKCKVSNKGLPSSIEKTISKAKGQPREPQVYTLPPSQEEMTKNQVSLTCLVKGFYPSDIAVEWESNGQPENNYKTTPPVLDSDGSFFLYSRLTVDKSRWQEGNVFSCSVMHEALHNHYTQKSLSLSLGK
light: B2 light
notes: Humanized, human IgG4 / kappa; also called humanized 72C1 antibody 1.1
On to B7, for which the EC50 in experiment [1] is 11.6 nM.
